Source: patent publication US20130071400A1, “LINGO binding molecules and Pharmaceutical Use Thereof” (NOVARTIS AG, priority 2006, published 2013)

B1: IgG4 4784: monoclonal human anti-LINGO-1 IgG4 antibody; VL SEQ ID NO: 4, VH SEQ ID NO: 5 (antibody, V domains shown)
VH: QVQLKESGPALVKPTQTLTLTCTFSGFSLSSSGVGVGWIRQPPGKALEWLAHIGSDDDKYYSTSLKTRLTISKDTSKNQVVLTMTNMDPVDTATYYCARNQQYGDGYPGYFDYWGQGTLVTVSS
VL: DIELTQPPSVSVAPGQTARISCSGDNIGNYYVYWYQQKPGQAPVLVIYEDTNRPSGIPERFSGSNSGNTATLTISGTQAEDEADYYCQSYDNLHEQVFGGGTKLTVLG
modifications: IgG4; 4784 VH; 4784 VL
B2: IgG4 4785: monoclonal human anti-LINGO-1 IgG4 antibody; VL SEQ ID NO: 6, VH SEQ ID NO: 7 (antibody, V domains shown)
VH: QVQLQQSGPGLVKPSQTLSLTCAISGDSVSDNSAAWSWIRQSPGRGLEWLGLIYLRSKWDNDYAVSVKSRITINPDTSKNQFSLQLNSVTPEDTAVYYCARTGRADEFDVWGQGTLVTVSS
VL: DIVLTQPPSVSGAPGQRVTISCSGSSSNIGNNYVSWYQQLPGTAPKLLISRNSKRPSGVPDRFSGSKSGTSASLAITGLQSEDEADYYCSTYDTFSIVFGGGTKLTVLG
modifications: IgG4; 4785 VH; 4785 VL

Test system: postnatal day 7 rat cerebellar granule neurons (CGN)
Test: Neurite outgrowth inhibition assay on spinal cord myelin
Type: cell-based
Details: sub-nM concentrations in vitro
Description: A) P7 CGN cells are incubated for 16 hr on wells coated without spinal cord myelin (no SC, white bars) or wells coated with spinal cord myelin in the absence (SC, red bars) or presence of anti-LINGO-1 IgG4 antibodies, a control anti-lysozyme IgG4 antibody 3207 (green bars) or […] of the ROCK inhibitor Y27632 (yellow bar). […] The experiment is performed in three 96 well plates with an SC and no SC condition per plate to which the effects of the antibodies on that plate are compared and mean neurite length per neuron (μm) is calculated for 500 neurons per well in replicates of 10. The percentage inhibition (white text) is calculated as the percentile difference in mean neurite length/neuron between cells plated on wells coated with and without SC. The percentage disinhibition (black italic text) is calculated as the difference in mean neurite length between cells plated on SC in the presence and absence of anti-LINGO-1 antibody as a percentile of the difference between cells plated on wells coated with and without SC. *p<0.05, **p<0.01 (one way ANOVA, Holm-Sidak comparison to mean neurite length/neuron for cells plated on spinal cord myelin in the absence of antibody).
A) P7 CGN cells are incubated for 8 hr on wells coated without spinal cord myelin (no SC, white bars) or wells coated with spinal cord myelin in the absence (SC, red bars) or presence of anti-LINGO-1 IgG4 antibodies or a control anti-lysozyme IgG4 antibody 3207. The experiment is performed in three 96 well plates with an SC and no SC condition per plate to which the effects of the antibodies on that plate are compared and mean neurite length per neuron (μm) is calculated for 500 neurons per well in replicates of 10. The percentage inhibition (white text) and disinhibition (black italic text) is calculated as above. **p<0.01 (one way ANOVA, Holm-Sidak comparison to mean neurite length/neuron for cells plated on spinal cord myelin in the absence of antibody).
P7 CGN cells are incubated for 8 hr on wells coated without spinal cord myelin (no SC) or wells coated with spinal cord myelin in the absence (SC) or presence of the indicated concentrations of anti-LINGO-1 IgG4 antibodies 4784 or 4785, a control anti-lysozyme IgG4 antibody 3207 or 1 μM Y27632 (ROCK). The experiment is performed in three 96 well plates with an SC and no SC condition per plate to which the effects of the antibodies on that plate are compared and mean neurite length per neuron (μm) is calculated for 500 neurons per well in replicates of 10. The percentage inhibition (white text) and disinhibition (black italic text) is calculated as above. *p<0.05, **p<0.01 (one way ANOVA, Holm-Sidak comparison to mean neurite length/neuron for cells plated on spinal cord myelin in the absence of antibody). […]

Molecule | attenuation of the neurite outgrowth inhibitory activity of adult rat spinal cord myelin
B1 | significantly attenuate
B2 | significantly attenuate
